From US20090087428A1 (Genentech, published 2009) come the findings set out here.

The labels stand for the following.
B1: 5A6/22E7 knob in holes, wild type hinge, bispecific antibody (bispecific antibody)
chain 1: EVKLEESGGGLVQPGGSMKLSCVASGFTFSDAWMDWVRQSPERGLEWVAEIRSKPNNHATYYAESVKGRFTISRDDSKSSVYLQMTSLRPEDTGIYYCTHFDYWGQGTTLTVSSAKTTGPSVFPLAPSSKSTSGGTAALGCLVKDYFPEPVTVSWNSGALTSGVHTFPAVLQSSGLYSLSSVVTVPSSSLGTQTYICNVNHKPSNTKVDKKVEPKSCDKTHTCPPCPAPELLGGPSVFLFPPKPKDTLMISRTPEVTCVVVDVSHEDPEVKFNWYVDGVEVHNAKTKPREEQYNSTYRVVSVLTVLHQDWLNGKEYKCKVSNKALPAPIEKTISKAKGQPREPQVYTLPPSRDELTKNQVSLWCLVKGFYPSDIAVEWESNGQPENNYKTTPPVLDSDGSFFLYSKLTVDKSRWQQGNVFSCSVMHEALHNHYTQKSLSLSPEL
chain 2: DIQMTQSPSSLSASLGERVSLTCRASQEISGYLSWFQQKPDGTIKRLIYAASALDSGVPKRFSGSWSGSDYSLTISSLESEDFADYYCLQYVSYPLTFGAGTKLELKRTVAAPSVFIFPPSDEQLKSGTASVVCLLNNFYPREAKVQWKVDNALQSGNSQESVTEQDSKDSTYSLSSTLTLSKADYEKHKVYACEVTHQGLSSPVTKSFNRGEC
chain 3: not shown
chain 4: DIMMTQSPSSMYASLGERVTITCKASQDINSYLSWFQQKPGKSPKTLISRANRLVDGVPSRFSGSGSGQDYSLTISSLEYEDMGIYYCLQYDDFPFTFGGGTKVEIKRTVAAPSVFIFPPSDEQLKSGTASVVCLLNNFYPREAKVQWKVDNALQSGNSQESVTEQDSKDSTYSLSSTLTLSKADYEKHKVYACEVTHQGLSSPVTKSFNRGEC
B2: Antibody 5A6.2.1 (anti-human FcγRIIB monoclonal antibody) (antibody)
VH: EVKLEESGGGLVQPGGSMKLSCVASGFTFSDAWMDWVRQSPERGLEWVAEIRSKPNNHATYYAESVKGRFTISRDDSKSSVYLQMTSLRPEDTGIYYCTHFDYWGQGTTLTVSSAKTTGPSVFPLAPSSKSTSGGTAALGCLVKDYFPEPVTVSWNSGALTSGVHTFPAVLQSSGLYSLSSVVTVPSSSLGTQTYICNVNHKPSNTKVDKKVEPKSCDKTHT
VL: B1 chain 2
notes: 5A6(A) and 5A6(B) are two protein preps of 5A6; also called 5A6 MAb; 5A6 mIgG1
B3: 5A6/22E7 knob in holes, hingeless bispecific antibody (anti-FcγRIIB/anti-FcεRI) (bispecific antibody)
chain 1: B1 chain 1 with C223S, C226S
chain 2: B1 chain 2
chain 3: EVKLVESGGGLVKPGGSLKLSCAASGFTFSSYGMSWVRQTPEKRLEWVATISGGNNYTFYPDNLKGRFTISRDNAKNILYLQISSLRSVDTALYYCASLWYRASFAYWGQGTLVTVSSAKTTGPSVFPLAPSSKSTSGGTAALGCLVKDYFPEPVTVSWNSGALTSGVHTFPAVLQSSGLYSLSSVVTVPSSSLGTQTYICNVNHKPSNTKVDKKVEPKSCDKTHTSPPSPAPELLGGPSVFLFPPKPKDTLMISRTPEVTCVVVDVSHEDPEVKFNWYVDGVEVHNAKTKPREEQYNSTYRVVSVLTVLHQDWLNGKEYKCKVSNKALPAPIEKTISKAKGQPREPQVYTLPPSRDELTKNQVSLSCAVKGFYPSDIAVEWESNGQPENNYKTTPPVLDSDGSFFLVSKLTVDKSRWQQGNVFSCSVMHEALHNHYTQKSLSLSPEL
chain 4: B1 chain 4
B4: huFcεRIα extracellular domain (huFcεRIα ECD) (receptor, human, UniProt P12319 26-205, looked up)
chain: VPQKPKVSLNPPWNRIFKGENVTLTCNGNNFFEVSSTKWFHNGSLSEETNSSLNIVNAKFEDSGEYKCQHQQVNESEPVYLEVFSDWLLLQASAEVVMEGQPLFLRCHGWRNWDVYKVIYYKDGEALKYWYENHNISITNATVEDSGTYYCTGKVWQLDYESEPLNITVIKAPREKYWLQ
notes: extracellular domain; also called huFcεRI ECD
B5: huFcγRIIB extracellular domain with C-terminal His6 tag (huFcγRIIB ECD) (receptor)
chain: TPAAPPKAVLKLEPQWINVLQEDSVTLTCRGTHSPESDSIQWFHNGNLIPTHTQPSYRFKANNNDSGEYTCQTGQTSLSDPVHLTVLSEWLVLQTPHLEFQEGETIVLRCHSWKDKPLVKVTFFQNGKSKKFSRSDPNFSIPQANHSHSGDYHCTGNIGYTLYSSKPVTITVQAPHHHHHH
notes: Whole entry named; only the extracellular domain is in the construct; Baculovirus expression
B6: 22E7 MAb (anti-human FcεRI monoclonal antibody) (antibody)
chain 1: EVKLVESGGGLVKPGGSLKLSCAASGFTFSSYGMSWVRQTPEKRLEWVATISGGNNYTFYPDNLKGRFTISRDNAKNILYLQISSLRSVDTALYYCASLWYRASFAYWGQGTLVTVSS
chain 2: DIMMTQSPSSMYASLGERVTITCKASQDINSYLSWFQQKPGKSPKTLISRANRLVDGVPSRFSGSGSGQDYSLTISSLEYEDMGIYYCLQYDDFPFTFGGGTKVEIK

For assay [1], the target named is T1, GST-huFcγRIIB (human FcγRIIB extracellular domain-Gly-His6-GST fusion protein) (human, UniProt P08515 1-218 = GST).
T1 construct: Expressed in 293 cells; also called FcγRIIB-His6-GST; huFcγRIIB-His6-GST
In words: sandwich (bridging) ELISA, FIG. 29: plate FcγRIIB-His6-GST, antibody titrated, then huFcεRI-ECD-Fc and IgE-biotin/streptavidin-HRP; signal needs both arms.

In assay [2] the target is T2, huFcεRI-ECD-Fc (IgE receptor fusion) (human, UniProt P12319 26-205).
T2 construct: extracellular domain; not shown: Fc part
T2 sequence (looked up): B4 chain
In words: sandwich (bridging) ELISA, FIG. 30: plate huFcεRI-ECD-Fc, antibody titrated, then FcγRIIB-His6-GST and anti-GST-biotin/streptavidin-HRP; signal needs both arms. As for the experimental part:
ELISA plates were coated overnight at 4° C. with 100 μl of a 1 μg/ml solution of huFcεRI-ECD-Fc in PBS, pH 7.4. The plate was washed with PBS and blocked with 1% Casein blocker in PBS. The wells were washed three times with PBS/0.05% TWEEN®. Serial dilutions of 5A6/22E7 bispecific antibodies, 5A6 antibodies, or 22E7 antibody were prepared in ELISA Diluent buffer and added to wells at 100 μl/well of each dilution. The plates were incubated for 1 hour at room temperature. After washing the plate three times with PBS/0.05% TWEEN®, FcγRIIB-His₆-GST was added to each well at 100 μl of 1 μg/ml in the presence of 10 μg/ml of CD4-IgG to block FcγRIIB-His₆-GST binding to Fc portion of the test antibody, huFcεRI-ECD-Fc and secondary antibody (anti-GST-biotin) and incubated for 1 hour at room temperature. After washing the plate three times with PBS/0.05% TWEEN®, 100 μl of 1 μg/ml anti-GST-biotin was added to each well and incubated for 1 hour at room temperature. The plate was washed with PBS/0.05% TWEEN® and incubated 30 minutes with 100 μl/well of 1:2000 Streptavidin-HRP in Elisa diluent buffer. After washing with PBS/0.05% TWEEN®, the plate was incubated 5 minutes with 100 μl TMB substrate. The reaction was quenched with 100 μl/well stop solution and the plate read at 630 nm. […]
On the technique in general: In an ELISA, binding on a coated surface is turned into a signal by an enzyme label.

The target in assay [3] is T3, native human FcγRIIA (CD32A) on K562 erythroleukemia cells (human, UniProt P12318 34-317).
T3 construct: also called huFcγRIIA (CD32A); native FcγRIIA
T3 sequence: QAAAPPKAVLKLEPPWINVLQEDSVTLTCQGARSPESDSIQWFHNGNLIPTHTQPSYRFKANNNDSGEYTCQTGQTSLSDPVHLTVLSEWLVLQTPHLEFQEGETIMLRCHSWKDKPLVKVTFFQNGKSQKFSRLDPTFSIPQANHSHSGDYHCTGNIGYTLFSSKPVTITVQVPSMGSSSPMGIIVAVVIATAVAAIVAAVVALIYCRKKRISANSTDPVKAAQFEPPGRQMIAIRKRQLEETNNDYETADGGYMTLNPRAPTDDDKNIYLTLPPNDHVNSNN
In words: indirect immunofluorescence, flow cytometry on K562 cells (FIG. 16). An excerpt: Indirect immunofluorescence binding analysis of 5A6 MAb to native FcγRIIA expressed on K562 erythroleukemia cells (ATCC No. CCL-243) is presented in FIG. 16. Separated aliquots of K562 cells were stained with either a mIgG1 isotype control (mopc 21), 5A6 (anti-human FcγRIIB) monoclonal antibody or Medarex 4.3 MAb (anti-human FcγRIIA/B) monoclonal antibody.
(In general: Flow cytometry measures light scatter and fluorescence of single cells or particles in a stream.)

Assay [4] addresses T1, GST-huFcγRIIB (human FcγRIIB …). In words: ELISA, plate-coated GST fusion (FIG. 6).
Assay [5] has as its target B3. Briefly: flow cytometry, RBL huFcεRI+huFcγRIIB1 and +huFcγRIIB2 cells (FIGS. 40, 41).
In assay [6] the target is T2, huFcεRI-ECD-Fc (IgE receptor fusion). In words: sandwich (bridging) ELISA, FIG. 30: plate huFcεRI-ECD-Fc, antibody titrated, then FcγRIIB-His6-GST and anti-GST-biotin/streptavidin-HRP; signal needs both arms, so the value does not measure 22E7 on FcεRI alone.

Residue numbers refer to the chain shown, from its start. Several values for one entry are separate records, joined by “and”; a condition that tells them apart may be missing. Identical values can stand only once.

The term IC50 denotes the point on the concentration scale where inhibition reaches its midpoint. Read a high IC50 as weaker potency. By EC50 is commonly meant the concentration that produces a half-maximal response. Lower therefore signals greater potency.

With B1, the half-maximal inhibitory concentration (IC50) in assay [1] is 0.0552 µg/mL and 0.076 µg/mL; in assay [2], 0.49 µg/mL and 0.291 µg/mL.
For B2, the binding result in assay [3] was “no binding”. The molecule further displayed an EC50 in assay [4] of 0.06 nM.
For the molecule B3, the values for the IC50 in assay [1] and in assay [2] were 0.023 µg/mL and 0.0765 µg/mL, respectively.
Regarding B4, the “ECD to bispecific ratio at which binding to cells is decreased (complete blocking only with both ECDs)” value in assay [5] is 10 ratio ECD:bispecific.
Regarding B5, the “ECD to bispecific ratio at which binding to cells is decreased (complete blocking only with both ECDs)” value in assay [5] is 10 ratio ECD:bispecific.
Take B6: the IC50 came out at 100 µg/mL in assay [1] and 2800 µg/mL in assay [6].
